We go through eight molecules from patent US20120316071A1 (published 2012).

The target in this experiment is T1, Recombinant Human DLL4 (human, UniProt Q9NR61 27-524).
T1 construct: also called delta-like protein 4; rHuman DLL4
Put plainly: ELISA, DLL4 coated on plate, Fab at 100 nM, absorbance at 450 nm minus blank. For orientation: ELISA stands for enzyme-linked immunosorbent assay.

B1: Fab VH5-51_IGHD5-18*01>3_IGHJ4*01 G100K/G104T G24T/S28R/G35V (H:KT TRV) & V3-4_IGLJ1*01 S30A (Fab, V domains shown)
VH: EVQLVQSGAEVKKPGESLKISCKTSGYRFTSYWIVWVRQMPGKGLEWMGIIYPGDSDTRYSPSFQGQVTISADKSISTAYLQWSSLKASDTAMYYCARRKYSYTYDYFDYWGQGTLVTVSS
VL: QTVVTQEPSFSVSPGGTVTLTCGLSSGSVATSYYPSWYQQTPGQAPRTLIYSTNTRSSGVPDRFSGSILGNKAALTITGAQADDESDYYCVLYMGSGISYVFGTGTKVTVL
notes: Fab; expressed in E. coli with CH1 (Plasmid A, His6 and Flag tags) and lambda CL (Plasmid E); also called H:KT TRV & S30A
As for B1, the “ELISA Signal-blank (100 nM Fab)” value is 0.344.

B2: Fab VH5-51_IGHD5-18*01>3_IGHJ4*01 G100K/G104T G24T/S28R/G35V (H:KT TRV) & V3-4_IGLJ1*01 S99A (Fab, V domains shown)
VH: EVQLVQSGAEVKKPGESLKISCKTSGYRFTSYWIVWVRQMPGKGLEWMGIIYPGDSDTRYSPSFQGQVTISADKSISTAYLQWSSLKASDTAMYYCARRKYSYTYDYFDYWGQGTLVTVSS
VL: QTVVTQEPSFSVSPGGTVTLTCGLSSGSVSTSYYPSWYQQTPGQAPRTLIYSTNTRSSGVPDRFSGSILGNKAALTITGAQADDESDYYCVLYMGSGIAYVFGTGTKVTVL
notes: Fab; expressed in E. coli with CH1 (Plasmid A, His6 and Flag tags) and lambda CL (Plasmid E); also called H:KT TRV & S99A
For B2, the “ELISA Signal-blank (100 nM Fab)” value amounted to 0.3.

B3: Fab VH5-51_IGHD5-18*01>3_IGHJ4*01 G100K/G104T G24T/S28R/G35V (H:KT TRV) & V3-4_IGLJ1*01 T31A (Fab, V domains shown)
VH: EVQLVQSGAEVKKPGESLKISCKTSGYRFTSYWIVWVRQMPGKGLEWMGIIYPGDSDTRYSPSFQGQVTISADKSISTAYLQWSSLKASDTAMYYCARRKYSYTYDYFDYWGQGTLVTVSS
VL: QTVVTQEPSFSVSPGGTVTLTCGLSSGSVSASYYPSWYQQTPGQAPRTLIYSTNTRSSGVPDRFSGSILGNKAALTITGAQADDESDYYCVLYMGSGISYVFGTGTKVTVL
notes: Fab; expressed in E. coli with CH1 (Plasmid A, His6 and Flag tags) and lambda CL (Plasmid E); also called H:KT TRV & T31A
On to B3, for which the “ELISA Signal-blank (100 nM Fab)” value came to 0.552.

B4: Fab VH5-51_IGHD5-18*01>3_IGHJ4*01 G100K/G104T G24T/S28R/G35V (H:KT TRV) & V3-4_IGLJ1*01 T53A (Fab, V domains shown)
VH: EVQLVQSGAEVKKPGESLKISCKTSGYRFTSYWIVWVRQMPGKGLEWMGIIYPGDSDTRYSPSFQGQVTISADKSISTAYLQWSSLKASDTAMYYCARRKYSYTYDYFDYWGQGTLVTVSS
VL: QTVVTQEPSFSVSPGGTVTLTCGLSSGSVSTSYYPSWYQQTPGQAPRTLIYSANTRSSGVPDRFSGSILGNKAALTITGAQADDESDYYCVLYMGSGISYVFGTGTKVTVL
notes: Fab; expressed in E. coli with CH1 (Plasmid A, His6 and Flag tags) and lambda CL (Plasmid E); also called H:KT TRV & T53A
Take B4: the “ELISA Signal-blank (100 nM Fab)” value came to 0.532.

B5: Fab VH5-51_IGHD5-18*01>3_IGHJ4*01 G100K/G104T G24T/S28R/G35V (H:KT TRV) & V3-4_IGLJ1*01 S52A (Fab, V domains shown)
VH: EVQLVQSGAEVKKPGESLKISCKTSGYRFTSYWIVWVRQMPGKGLEWMGIIYPGDSDTRYSPSFQGQVTISADKSISTAYLQWSSLKASDTAMYYCARRKYSYTYDYFDYWGQGTLVTVSS
VL: QTVVTQEPSFSVSPGGTVTLTCGLSSGSVSTSYYPSWYQQTPGQAPRTLIYATNTRSSGVPDRFSGSILGNKAALTITGAQADDESDYYCVLYMGSGISYVFGTGTKVTVL
notes: Fab; expressed in E. coli with CH1 (Plasmid A, His6 and Flag tags) and lambda CL (Plasmid E); also called H:KT TRV & S52A
Turning to B5, the “ELISA Signal-blank (100 nM Fab)” value worked out at 0.574.

B6: Fab VH5-51_IGHD5-18*01>3_IGHJ4*01 G100K/G104T G24T/S28R/G35V (H:KT TRV) & V3-4_IGLJ1*01 S96A (Fab, V domains shown)
VH: EVQLVQSGAEVKKPGESLKISCKTSGYRFTSYWIVWVRQMPGKGLEWMGIIYPGDSDTRYSPSFQGQVTISADKSISTAYLQWSSLKASDTAMYYCARRKYSYTYDYFDYWGQGTLVTVSS
VL: QTVVTQEPSFSVSPGGTVTLTCGLSSGSVSTSYYPSWYQQTPGQAPRTLIYSTNTRSSGVPDRFSGSILGNKAALTITGAQADDESDYYCVLYMGAGISYVFGTGTKVTVL
notes: Fab; expressed in E. coli with CH1 (Plasmid A, His6 and Flag tags) and lambda CL (Plasmid E); also called H:KT TRV & S96A
In the case of B6, the “ELISA Signal-blank (100 nM Fab)” value was found to be 0.436.

B7: Fab VH5-51_IGHD5-18*01>3_IGHJ4*01 G100K/G104T G24T/S28R/G35V (H:KT TRV) & V3-4_IGLJ1*01 S32A (Fab, V domains shown)
VH: EVQLVQSGAEVKKPGESLKISCKTSGYRFTSYWIVWVRQMPGKGLEWMGIIYPGDSDTRYSPSFQGQVTISADKSISTAYLQWSSLKASDTAMYYCARRKYSYTYDYFDYWGQGTLVTVSS
VL: QTVVTQEPSFSVSPGGTVTLTCGLSSGSVSTAYYPSWYQQTPGQAPRTLIYSTNTRSSGVPDRFSGSILGNKAALTITGAQADDESDYYCVLYMGSGISYVFGTGTKVTVL
notes: Fab; expressed in E. coli with CH1 (Plasmid A, His6 and Flag tags) and lambda CL (Plasmid E); also called H:KT TRV & S32A
As to B7, the “ELISA Signal-blank (100 nM Fab)” value was found to be 0.502.

B8: Fab VH5-51_IGHD5-18*01>3_IGHJ4*01 G100K/G104T G24T/S28R/G35V (H:KT TRV) & V3-4_IGLJ1*01 S36A (Fab, V domains shown)
VH: EVQLVQSGAEVKKPGESLKISCKTSGYRFTSYWIVWVRQMPGKGLEWMGIIYPGDSDTRYSPSFQGQVTISADKSISTAYLQWSSLKASDTAMYYCARRKYSYTYDYFDYWGQGTLVTVSS
VL: QTVVTQEPSFSVSPGGTVTLTCGLSSGSVSTSYYPAWYQQTPGQAPRTLIYSTNTRSSGVPDRFSGSILGNKAALTITGAQADDESDYYCVLYMGSGISYVFGTGTKVTVL
notes: Fab; expressed in E. coli with CH1 (Plasmid A, His6 and Flag tags) and lambda CL (Plasmid E); also called H:KT TRV & S36A
Turning to B8, the “ELISA Signal-blank (100 nM Fab)” value was determined as 0.38.
